Measurements as given in the nanobody polyreactivity screen of Harvey et al. (2022).

Assay: yeast display, Sf9 membrane polyspecificity reagent, FACS + sequencing; frameworks hold sequencing errors
Summary of the method: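 Nanobodies from a synthetic yeast display library (Saccharomyces cerevisiae BJ5465), induced 36–48 hours with galactose, were stained 1 hour at 4 °C with 10% biotinylated, detergent-solubilized Sf9 membrane reagent, enriched on streptavidin microbeads, then FACS-sorted. Anti-HA (expression) and streptavidin (reagent binding) fluorescence set low and high (top ~1%) gates. Polyreactivity labels come from the gate of origin. Genes were colony-PCR amplified, MiSeq 2 × 250 sequenced and filtered by CDR length.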

Row | Sequence | polyreactivity (PSR sort gate)
1 | QVQLVESGGGLVQAGGSLRLSCAASGFISPGYAMGWYRQAPGKERELVAAITRDGGTYYADSVKGRFTISRDNAKNTVYLQMNSLKPEDTAVYYCAAEGSFRKFDYWGQGTQVTVSS | low polyreactivity
2 | QVQLVESGGGLVQAGGSLRLSCAASGITFLPYTMGWYRQAPGKERELVATISWNGGSTYYADSVKGRFTISRDNAKNTVYLQMNSLKPEDTAVYYCATGKWGYFRYNYWGQGTQVTVSS | high polyreactivity
3 | QVQLVESGGGLVQAGGSLRLICAASGSTFYWYMGWYRQAPGKERELVAAITSGGRTYYADSVKGRFTISRDNAKNTVYLQMNSLKPEDTAVYYCATTRRYAYRGGHNYWGQGTQVTVSS | high polyreactivity
4 | QVQLVESGVGLVQAGGSLRLICAASGRNFRTNAMGWYRQAPGKERELVAAISTGGGITKYADSVKGRFTISRDNSKNTVYLQMNSLKPEDTAVYYCAADAVNTLDYWGQGTQVTVSS | low polyreactivity
5 | QVQLVESGGGLVQAGGSHRLSCAASGLTFRRNAMGWYRQAPGKERELVAAISGSGGSTYYADSVKGRFTISRDNAKNTVYLQMNSLKPEDTAVYYCAADDGIVAYGYWGQGTQVTVSS | high polyreactivity
6 | QVQLVESGGGLFQAGGSLRLSCAASGIIFYDYAMGRYRQPPAKERELVAAITSNGDNTYYADSVKWRFTISRDNAKNTVYLQMNILKPEDTAVYYCAVDGSFAADFDNYLEEYGYWGQGTQVTVSS | low polyreactivity
7 | QVQLVESGGGLVQAGGSLRLSCAASGRTSLNYAMGWYRQAPGKERELVAAITLRGGNTYYADSVKGRFTISRDNAKNTVYLQMNSLKPEDTAVYYCAAYTKEISIYYPYEYWGQGTQVTVSS | high polyreactivity
8 | QVQLVESGGGLVQAGGSLRLSCAASGRILVLNAMGWYRQAPGKERELVADITSGGSTYYADSVKGRFTISRDNAKNTVYLQMNSLKPEDTAVYYCAADWNTYPDYQQSYFVSYEYNYWGQGTQVTVSS | low polyreactivity
9 | QVQLVESGGGLVQAGGSLRLSCAASGRTFLVNAMGWYRQAPGKERELVAVITRGGSTNYADSVKGRFTISRDNAKNTVYLQMNSLKPEDTAVYYCAAEAYYGLWMDYWGQGTQVTVSS | low polyreactivity
10 | QVQLVESGGGLVQAGGSLRLSCAASGSIFYFYAMGWYRQAPGKERELVATITRGGSTYYADSVKGRFTISRDNAKNTVYLQMNSLKPEDTAVYYCAADGWYWTYIVEYWGQGTQVTVSS | high polyreactivity
11 | QVKLVESGGGLVQAGGSLRLSCAASGRILGYYAMGWYRPAPGKERELVAAINRGGRTYYADSVKGRFTISRDNAKNTVYLEMYSLKPEDTAVYYCAAVLYNQWALVYWFGYNYWGQGTQVSVSS | high polyreactivity
12 | QVQLVESGGGLVQAGGSLRLICAASGFTFARYAMGWYRQAPGKERELVAAITSAGSTSYADSVKGRFTISRDNAKNTVYLQMNSLKPEDTAVYYCAAPFTVRYNYWGQGTKVTVSS | high polyreactivity
13 | QVQLVESGGGLDQAGGSLRLSCAASGRTFWAPYTMGWYRQAPWKERELVAAISKSTTRTYYADSVKGRFTISRDNAKNTVYLQMTSLKPEDTAVYYCAVDSLYASRWVDYWGQGTQVTVSS | high polyreactivity
14 | QVQLVESGGGLDQAGGSLRLSCAASGRIFFAYAMGWYRQAPGKEREFVAAISDNDGSTFYADSVKGRFTISRDNAKNPVYLQMNSLKPEDTAVYYCNADLGYVYDYWGQGTQVTVSS | low polyreactivity
15 | QVQLLESGVGLVQAGGSLRLSCAASGTIFVDYAMGWYRQAPGKERQLVAAITSVGRTNYADSVKGRFTISRDNAKNTVYLQMNSLKPEDTAVYYCNKTRYTNYYTTTFDYWGQGTQVTVSS | low polyreactivity
16 | QVQLVESGGGLVQAGGSLRLSCAASGSIFDTYAMGWYRQAPGKEREVVAAITWSGSSTYYADSVKGRFTISRDNAKNTVYLQMNSLKPEDTAVYYCAAEVSGKYFLFDYWGQGTQVTVSS | high polyreactivity
17 | QVQLVESGGGLVQSGGSLRLSCAASGIIFNDYAMGWYRQAPGKERELVAAISGRGGRTYYADSVKGRFTISRDNAKITVYLQMNSLKPEDTAVYYCAARVLPTDYYWGQGTQVTVSS | high polyreactivity
18 | QDQLEETGGGLVHAGGSLRLSCAASGRTFVVYDMGWYRQAPGKERELVAGIRWRGGSTYYADSVKGRFTISRDNAKNSVYLQMNSLKPVDTAVYYCAADVYLVKYDYWGQGTQVTVSS | low polyreactivity
19 | QVQLVESGGGLVQAGGSLRLSCAASGRTFDPYARGGYRQAPGKERELVASISRGGSTYADSVKGRFTISRDNAKNTVYLQMNSLKPEDTAVYYCNTSLYTEGDAMDYWGQGTQVTVSS | low polyreactivity
20 | QVQLVESGGGLVQAGGSLRLTCAASGFTIYLYTMGWYRQAPGKERELVATISWSGGSTYYADSVKGRFTISRDNAKNTVYLHMNSLKPEDTAVYYCAKAYNGRYTWRYDYWGQGTQVTVSS | high polyreactivity
21 | QVQLVESGGGLVQAGGSLRLSCAPSGGTFVSYVMGWYRQAPGKERELVAAISVSGGRTYYADSVKGRFTISRDNAKNTVYLQMNSLKPEDTAVYYCAADSVVVGSPGNDYWGQGTQVTVSS | high polyreactivity
